Data from patent US20260152573A1 (ARGENX, published 2026).

Experiments:
human serum albumin [1] = target: T1, human serum albumin (human, UniProt P02768 25-609); assay: SPR Biacore 8K+ SCK, albumin on chip, pH 7.4
T1 construct: Immobilised on SPR chips; also added in solution in the FcRn occupancy assays; also called HSA; humanSA

[2] = target: T2, cynomolgus monkey serum albumin (cynomolgus monkey, UniProt A2V9Z4 25-608); assay: SPR Biacore 8K+ SCK, albumin on chip, pH 7.4
T2 construct: Immobilised on SPR chips; also called cynoSA; cynomolgus albumin

human serum albumin [3] = target: T1, human serum albumin; assay: SPR Biacore 8K+ SCK, albumin on chip, pH 5.5
[4] = target: T2, cynomolgus monkey serum albumin; assay: SPR Biacore 8K+ SCK, albumin on chip, pH 5.5
[5] = target: T2, cynomolgus monkey serum albumin; assay: SPR Biacore 8K+ SCK, albumin on chip, pH 7.4; remark: listed apart in the source
human serum albumin [6] = target: T1, human serum albumin; assay: SPR Biacore 8K+ SCK, albumin on chip, pH 7.4; pH 7.4
[7] = target: T3, neonatal Fc receptor (FcRn), endogenous in U937 cells (human, UniProt P55899 24-365; P61769 21-119); assay: cell-based FcRn occupancy assay on U937 cells, flow cytometry; free FcRn stained with anti-FcRn-Fab AF647
T3 construct: whole, on cells; Free FcRn was stained intracellularly after fixation and permeabilisation
T3 sequence (P55899 24-365 limits assumed, chain 1 of 2): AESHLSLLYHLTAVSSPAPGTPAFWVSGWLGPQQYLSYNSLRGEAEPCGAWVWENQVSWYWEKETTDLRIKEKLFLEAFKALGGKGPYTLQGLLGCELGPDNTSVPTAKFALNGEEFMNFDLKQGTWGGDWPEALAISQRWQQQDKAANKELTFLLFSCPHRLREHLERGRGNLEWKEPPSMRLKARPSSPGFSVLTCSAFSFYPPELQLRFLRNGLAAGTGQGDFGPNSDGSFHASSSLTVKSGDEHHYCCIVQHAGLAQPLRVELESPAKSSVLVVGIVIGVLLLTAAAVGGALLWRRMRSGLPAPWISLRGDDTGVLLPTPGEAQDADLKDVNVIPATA
T3 sequence (P61769 21-119 limits assumed, chain 2 of 2): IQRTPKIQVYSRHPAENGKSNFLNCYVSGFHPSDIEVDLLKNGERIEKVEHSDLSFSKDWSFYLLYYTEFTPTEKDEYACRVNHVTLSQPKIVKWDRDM

[8] = target: T2, cynomolgus monkey serum albumin; assay: screening by ELISA/Biacore
mouse serum albumin = target: T4, mouse serum albumin (mouse, UniProt P07724 25-608); assay: screening by ELISA/Biacore
T4 construct: Immobilised on SPR chips; also called mouseSA; MSA

[9] = target: T5, isolated domain II of serum albumin (UniProt P02768 213-409, limits assumed); assay: screening by ELISA/Biacore
T5 construct: domain: DII; also called isolated DII

B1: Alb23 (VHH)
VHH: EVQLLESGGGLVQPGGSLRLSCAASGFTFRSFGMSWVRQAPGKGPEWVSSISGSGSDTLYADSVKGRFTISRDNSKNTLYLQMNSLRPEDTAVYYCTIGGSLSRSSQGTLVTVSS
notes: VHH alone, injected in solution; also called VHH-Alb23_Parental (#1); Alb23 parental
Kd (human serum albumin [1]): 2.37 nM | Kd [2]: 2.68 nM | Kd (human serum albumin [3]): 1.42 nM | Kd [4]: 1.32 nM | Kd [5]: 2.68 nM | Kd (human serum albumin [6]): 2.37 nM

B2: mAb37-OA-ABDEG (antibody, human IgG1, kappa)
heavy: QVQLVQSGAEVMKPGSSVKVSCKASGYTFSWYHLEWVRQAPGHGLEWMGEIDPGTFTTNYNEKFKARVTFTADTSTSTAYMELSSLRSEDTAVYYCARFSHFSGSNHDYFDYWGQGTLVTVSSASTKGPSVFPLAPSSKSTSGGTAALGCLVKDYFPEPVTVSWNSGALTSGVHTFPAVLQSSGLYSLSSVVTVPSSSLGTQTYICNVNHKPSNTKVDKKVEPKSCDKTHTCPPCPAPELLGGPSVFLFPPKPKDTLYITREPEVTCVVVDVSHEDPEVKFNWYVDGVEVHNAKTKPREEQYNSTYRVVSVLTVLHQDWLNGKEYKCKVSNKALPAPIEKTISKAKGQPREPQVYTLPPSRDELTKNQVSLWCLVKGFYPSDIAVEWESNGQPENNYKTTPPVLDSDGSFFLYSKLTVDKSRWQQGNVFSCSVMHEALKFHYTQKSLSLSPG
light: EIVMTQSPATLSVSPGERATLSCRASQSIGTNIHWYQQKPGQAPRLLIYYASESISGIPARFSGSGSGTEFTLTISSLQSEDFAVYYCQQSWSWPTTFGGGTKVEIKRTVAAPSVFIFPPSDEQLKSGTASVVCLLNNFYPREAKVQWKVDNALQSGNSQESVTEQDSKDSTYSLSSTLTLSKADYEKHKVYACEVTHQGLSSPVTKSFNRGEC
chain: DKTHTCPPCPAPELLGGPSVFLFPPKPKDTLYITREPEVTCVVVDVSHEDPEVKFNWYVDGVEVHNAKTKPREEQYNSTYRVVSVLTVLHQDWLNGKEYKCKVSNKALPAPIEKTISKAKGQPREPQVYTLPPSRDELTKNQVSLSCAVKGFYPSDIAVEWESNGQPENNYKTTPPVLDSDGSFFLVSKLTVDKSRWQQGNVFSCSVMHEALKFHYTQKSLSLSPG
notes: it is not used here as a chain; also called one-armed NT-mAb37 Fab attached to Fc-ABDEG via natural hinge region
IC50 (read off the curve) [7]: ~1 nM

B3: 2H11 (VHH)
VHH: ELQVVESGGGLVQAGGSLRLSCAASGRTFRSNTMGWFRQAPGKEREFVAAITWSGGTTYYADSVKGRFAISGDNAKNTVYLQMNSLKPEDTAVYYCAAEGPKWEPWNGIYHPADFGSWGQGTQVTVSS
notes: Clone from llama phage display libraries; also called 2H11 parental VHH; clone 2H11
binding result [8]: no binding | binding result (mouse serum albumin): no binding | binding result [9]: no binding
